Test results reported in publication PMC11183095 (2024).

Molecular target: Recombinant His-PGAM1 (human, UniProt P18669 1-254)
Test: BLI

Chain of Recombinant His-PGAM1 (P18669 whole entry): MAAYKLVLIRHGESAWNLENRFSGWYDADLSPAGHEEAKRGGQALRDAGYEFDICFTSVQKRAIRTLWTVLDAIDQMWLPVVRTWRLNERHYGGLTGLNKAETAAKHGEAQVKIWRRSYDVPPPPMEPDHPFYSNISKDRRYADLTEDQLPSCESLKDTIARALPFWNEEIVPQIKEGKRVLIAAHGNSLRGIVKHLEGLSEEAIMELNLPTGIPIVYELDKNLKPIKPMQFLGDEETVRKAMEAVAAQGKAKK

B1: Recombinant GST-PKM2 (enzyme)
chain: not shown
Kd: 2240 nM
